Measured values from publication PMC2756588.

T1: Bzz1-2, P38822
T1 sequence (P38822 568-633, looked up): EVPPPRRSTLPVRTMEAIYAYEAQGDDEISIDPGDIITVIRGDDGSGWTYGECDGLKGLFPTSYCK

T2: Cyk3, Q07533
T2 sequence (Q07533 1-83, looked up): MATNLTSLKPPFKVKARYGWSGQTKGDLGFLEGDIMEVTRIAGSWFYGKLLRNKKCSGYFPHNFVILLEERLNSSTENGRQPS

T3: Lsb3, P43603
T3 sequence (P43603 385-451, looked up): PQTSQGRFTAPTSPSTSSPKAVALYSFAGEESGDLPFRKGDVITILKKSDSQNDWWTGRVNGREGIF

T4: Sla1-2, P32790
T4 sequence (P32790 60-140, looked up): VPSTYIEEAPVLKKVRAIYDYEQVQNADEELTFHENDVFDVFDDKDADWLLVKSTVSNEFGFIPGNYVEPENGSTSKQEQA

T5: Fus1, P11710
T5 sequence (P11710 432-512, looked up): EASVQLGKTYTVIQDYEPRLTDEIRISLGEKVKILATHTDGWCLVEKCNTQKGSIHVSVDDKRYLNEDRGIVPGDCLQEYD

T6: Bzz1-1, P38822
T6 sequence (P38822 478-572, looked up): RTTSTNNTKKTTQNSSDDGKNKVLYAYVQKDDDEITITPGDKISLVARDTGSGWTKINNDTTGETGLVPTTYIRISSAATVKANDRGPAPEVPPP

T7: Abp1, P15891
T7 sequence (P15891 535-592, looked up): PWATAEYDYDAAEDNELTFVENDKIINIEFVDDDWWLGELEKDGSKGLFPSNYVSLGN

T8: Pin3, Q06449
T8 sequence (Q06449 53-122, looked up): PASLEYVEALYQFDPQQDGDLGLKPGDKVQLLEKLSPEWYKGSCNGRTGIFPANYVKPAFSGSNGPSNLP

T9: Lsb1, P53281
T9 sequence (P53281 45-122, looked up): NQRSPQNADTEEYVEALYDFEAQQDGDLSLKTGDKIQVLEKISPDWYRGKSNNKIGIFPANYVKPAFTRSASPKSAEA

T10: Sla1-3, P32790
T10 sequence (P32790 344-424, looked up): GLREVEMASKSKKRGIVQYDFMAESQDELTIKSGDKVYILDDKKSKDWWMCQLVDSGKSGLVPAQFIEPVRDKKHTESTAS

T11: Pex13, P80667
T11 sequence (P80667 295-386, looked up): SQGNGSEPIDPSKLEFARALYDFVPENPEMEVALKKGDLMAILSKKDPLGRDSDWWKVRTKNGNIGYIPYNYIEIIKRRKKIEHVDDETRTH

T12: Myo5, Q04439
T12 sequence (Q04439 1072-1160, looked up): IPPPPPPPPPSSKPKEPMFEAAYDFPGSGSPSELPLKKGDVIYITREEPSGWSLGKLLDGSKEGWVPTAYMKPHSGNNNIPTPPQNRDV

T13: Cdc25, P04821
T13 sequence (P04821 50-136, looked up): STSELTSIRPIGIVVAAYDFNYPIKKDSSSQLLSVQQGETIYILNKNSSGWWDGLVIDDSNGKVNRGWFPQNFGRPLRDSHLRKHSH

T14: Bbc1, P47068
T14 sequence (P47068 1-78, looked up): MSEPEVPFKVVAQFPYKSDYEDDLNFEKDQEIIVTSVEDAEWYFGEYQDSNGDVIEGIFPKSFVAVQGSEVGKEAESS

T15: Lsb4, P32793
T15 sequence (P32793 402-468, looked up): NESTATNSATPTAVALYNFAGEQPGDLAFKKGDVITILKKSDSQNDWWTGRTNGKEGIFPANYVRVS

T16: Hse1, P38753
T16 sequence (P38753 208-285, looked up): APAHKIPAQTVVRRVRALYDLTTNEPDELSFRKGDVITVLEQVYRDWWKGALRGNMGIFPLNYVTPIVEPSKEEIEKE

T17: Bud14, P27637
T17 sequence (P27637 247-328, looked up): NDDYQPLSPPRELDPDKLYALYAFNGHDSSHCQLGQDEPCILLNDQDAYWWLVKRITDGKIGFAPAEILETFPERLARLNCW

T18: Boi1, P38041
T18 sequence (P38041 1-86, looked up): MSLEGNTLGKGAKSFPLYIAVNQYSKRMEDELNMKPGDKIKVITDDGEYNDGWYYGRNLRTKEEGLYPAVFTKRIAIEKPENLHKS

T19: Hof1, Q05080
T19 sequence (Q05080 590-669, looked up): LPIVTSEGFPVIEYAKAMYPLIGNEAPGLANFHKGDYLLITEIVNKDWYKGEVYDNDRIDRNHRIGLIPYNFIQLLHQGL

T20: Nbp2, Q12163
T20 sequence (Q12163 103-180, looked up): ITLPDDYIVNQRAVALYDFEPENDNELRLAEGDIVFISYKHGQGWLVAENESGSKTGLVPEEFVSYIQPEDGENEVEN

T21: Boi2, P39969
T21 sequence (P39969 32-116, looked up): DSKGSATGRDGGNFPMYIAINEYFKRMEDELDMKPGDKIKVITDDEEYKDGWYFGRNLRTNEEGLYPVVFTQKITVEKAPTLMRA


What was measured:
Experiment in all cases: SPOT array
Bzz1-2, P38822 = molecular target: T1, Bzz1-2, P38822; details: median of control spots 4538
Cyk3, Q07533 = molecular target: T2, Cyk3, Q07533; details: median of control spots 1451
Lsb3, P43603 = molecular target: T3, Lsb3, P43603; details: median of control spots 406
GST = details: median of control spots 978
Sla1-2, P32790 = molecular target: T4, Sla1-2, P32790; details: median of control spots 712
Fus1, P11710 = molecular target: T5, Fus1, P11710; details: median of control spots 1200
Bem1-2, P29366 = details: median of control spots 4347
Bem1-2, P29366, sequence (P29366 139-227): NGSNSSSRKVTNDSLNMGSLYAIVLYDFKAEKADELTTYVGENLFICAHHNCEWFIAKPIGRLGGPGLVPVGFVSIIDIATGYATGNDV

Bzz1-1, P38822 = molecular target: T6, Bzz1-1, P38822; details: median of control spots 4446
Abp1, P15891 = molecular target: T7, Abp1, P15891; details: median of control spots 935
Pin3, Q06449 = molecular target: T8, Pin3, Q06449; details: median of control spots 2171
Lsb1, P53281 = molecular target: T9, Lsb1, P53281; details: median of control spots 388
Sla1-3, P32790 = molecular target: T10, Sla1-3, P32790; details: median of control spots 5475
Pex13, P80667 = molecular target: T11, Pex13, P80667; details: median of control spots 1341
Myo5, Q04439 = molecular target: T12, Myo5, Q04439; details: median of control spots 471
Cdc25, P04821 = molecular target: T13, Cdc25, P04821; details: median of control spots 969
Bem1-1, P29366 = details: median of control spots 4282
Bem1-1, P29366, sequence (P29366 55-141): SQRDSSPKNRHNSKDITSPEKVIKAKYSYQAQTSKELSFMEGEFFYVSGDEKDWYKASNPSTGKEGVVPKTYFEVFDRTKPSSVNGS

Bbc1, P47068 = molecular target: T14, Bbc1, P47068; details: median of control spots 796
Lsb4, P32793 = molecular target: T15, Lsb4, P32793; details: median of control spots 397
Myo3, P36006 = details: median of control spots 468
Hse1, P38753 = molecular target: T16, Hse1, P38753; details: median of control spots 1727
Bud14, P27637 = molecular target: T17, Bud14, P27637; details: median of control spots 956
Boi1, P38041 = molecular target: T18, Boi1, P38041; details: median of control spots 1162
Hof1, Q05080 = molecular target: T19, Hof1, Q05080; details: median of control spots 4086
Rvs167, P39743 = details: median of control spots 2707
Rvs167, P39743, sequence (P39743 419-482): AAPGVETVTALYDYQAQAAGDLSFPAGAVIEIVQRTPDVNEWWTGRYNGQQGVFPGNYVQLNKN

Nbp2, Q12163 = molecular target: T20, Nbp2, Q12163; details: median of control spots 357
Boi2, P39969 = molecular target: T21, Boi2, P39969; details: median of control spots 1161
Sho1, P40073 = details: median of control spots 1148
Sho1, P40073, sequence (P40073 287-367): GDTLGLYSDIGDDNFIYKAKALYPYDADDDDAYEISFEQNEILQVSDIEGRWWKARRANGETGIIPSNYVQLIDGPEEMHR

| Binder | SPOT intensity (Bzz1-2, P38822) | SPOT intensity (Cyk3, Q07533) | SPOT intensity (Lsb3, P43603) | SPOT intensity (GST) | SPOT intensity (Sla1-2, P32790) | SPOT intensity (Fus1, P11710) | SPOT intensity (Bem1-2, P29366) | SPOT intensity (Bzz1-1, P38822) | SPOT intensity (Abp1, P15891) | SPOT intensity (Pin3, Q06449) | SPOT intensity (Lsb1, P53281) | SPOT intensity (Sla1-3, P32790) | SPOT intensity (Pex13, P80667) | SPOT intensity (Myo5, Q04439) | SPOT intensity (Cdc25, P04821) | SPOT intensity (Bem1-1, P29366) | SPOT intensity (Bbc1, P47068) | SPOT intensity (Lsb4, P32793) | SPOT intensity (Myo3, P36006) | SPOT intensity (Hse1, P38753) | also measured |
| --- | --- | --- | --- | --- | --- | --- | --- | --- | --- | --- | --- | --- | --- | --- | --- | --- | --- | --- | --- | --- | --- |
| QGYPRQPQRPQRYHP | 0 | 1 | 46 | 1 | 0 | 0 | 1 | 0 | 9 | 2 | 1 | 0 | 7 | 0 | 0 | 0 | 34 | 16 | 0 | 3 | SPOT intensity (Bud14, P27637): 1; SPOT intensity (Boi1, P38041): 0; SPOT intensity (Hof1, Q05080): 3; SPOT intensity (Rvs167, P39743): 0; SPOT intensity (Nbp2, Q12163): 0; SPOT intensity (Boi2, P39969): 0; SPOT intensity (Sho1, P40073): 0 |
| AERNYAPRLPRRETS | 1 | 0 | 371 | 0 | 0 | 0 | 0 | 0 | 50 | 18 | 352 | 5 | 76 | 0 | 11 | 1 | 18 | 137 | 0 | 4 | SPOT intensity (Bud14, P27637): 12; SPOT intensity (Boi1, P38041): 0; SPOT intensity (Hof1, Q05080): 0; SPOT intensity (Rvs167, P39743): 306; SPOT intensity (Nbp2, Q12163): 0; SPOT intensity (Boi2, P39969): 0; SPOT intensity (Sho1, P40073): 32 |
| QRIRKIPGIPLMSVG | 13 | 2 | 51 | 0 | 4 | 6 | 0 | 0 | 110 | 71 | 78 | 8 | 90 | 7 | 2 | 0 | 16 | 24 | 28 | 7 | SPOT intensity (Bud14, P27637): 9; SPOT intensity (Boi1, P38041): 0; SPOT intensity (Hof1, Q05080): 13; SPOT intensity (Rvs167, P39743): 156; SPOT intensity (Nbp2, Q12163): 5; SPOT intensity (Boi2, P39969): 0; SPOT intensity (Sho1, P40073): 42 |
| SSTPTTPERPKRKSG | 1 | 1 | 442 | 2 | 0 | 0 | 0 | 1 | 22 | 6 | 316 | 0 | 8 | 0 | 1 | 1 | 559 | 363 | 0 | 0 | SPOT intensity (Bud14, P27637): 0; SPOT intensity (Boi1, P38041): 0; SPOT intensity (Hof1, Q05080): 0; SPOT intensity (Rvs167, P39743): 0; SPOT intensity (Nbp2, Q12163): 0; SPOT intensity (Boi2, P39969): 2; SPOT intensity (Sho1, P40073): 0 |

Second part, led by results:

| SPOT intensity (Bzz1-2, P38822) | SPOT intensity (Cyk3, Q07533) | SPOT intensity (Lsb3, P43603) | SPOT intensity (GST) | SPOT intensity (Sla1-2, P32790) | SPOT intensity (Fus1, P11710) | SPOT intensity (Bem1-2, P29366) | SPOT intensity (Bzz1-1, P38822) | SPOT intensity (Abp1, P15891) | SPOT intensity (Pin3, Q06449) | SPOT intensity (Lsb1, P53281) | SPOT intensity (Sla1-3, P32790) | SPOT intensity (Pex13, P80667) | SPOT intensity (Myo5, Q04439) | SPOT intensity (Cdc25, P04821) | SPOT intensity (Bem1-1, P29366) | SPOT intensity (Bbc1, P47068) | SPOT intensity (Lsb4, P32793) | SPOT intensity (Myo3, P36006) | SPOT intensity (Hse1, P38753) | Binder | also measured |
| --- | --- | --- | --- | --- | --- | --- | --- | --- | --- | --- | --- | --- | --- | --- | --- | --- | --- | --- | --- | --- | --- |
| 0 | 0 | 207 | 0 | 423 | 0 | 0 | 0 | 8 | 4 | 857 | 3 | 21 | 0 | 0 | 0 | 1 | 145 | 0 | 0 | SAPDIPPRSPNRNAH | SPOT intensity (Bud14, P27637): 2; SPOT intensity (Boi1, P38041): 240; SPOT intensity (Hof1, Q05080): 0; SPOT intensity (Rvs167, P39743): 816; SPOT intensity (Nbp2, Q12163): 0; SPOT intensity (Boi2, P39969): 312; SPOT intensity (Sho1, P40073): 0 |
| 0 | 0 | 167 | 0 | 0 | 0 | 0 | 0 | 68 | 0 | 0 | 0 | 3 | 0 | 0 | 0 | 4 | 107 | 0 | 1 | LASNSPPVYPKRIRH | SPOT intensity (Bud14, P27637): 0; SPOT intensity (Boi1, P38041): 0; SPOT intensity (Hof1, Q05080): 1; SPOT intensity (Rvs167, P39743): 0; SPOT intensity (Nbp2, Q12163): 0; SPOT intensity (Boi2, P39969): 0; SPOT intensity (Sho1, P40073): 7 |
